Results reported in the DeepSol protein solubility set.

Experiment: soluble on expression in E. coli; label from the status in PepcDB or PDB records

Soluble on expression in E. coli, not soluble:
MGSDKIHHHHHHMAINYGVFTISLDFEMYWGVRDKRAISDYAVNLEGIRPAIAGMLDIFTEFNVHATWATVGFLFFRNSEHLSANLPKAIPTYTDINLSPYEYIKNKKLDDRYHFAPDLIQKIISTSGQEVASHTFSHYYCLEDGQTIDQFESDLALAVDTASRLGYKLSSLVFPRNQWNSEYLSVLNKYNIKSFRGNELNWMNSASGQEGQSYFKRAARLLDSYINISGFNTHDISTCLENKPFNFPSSRFLRPYNKKLSFFDCLKLRRIKKAMTHAAKNNELFHLWWHPHNFGAETSKNLDMLREILDHYQYLNKNFGMRSLNMEELSFLEKAYD
MGSDKIHHHHHHMAITIQNHELQVTLKALGATMTSITDSQGVEYLWQGDATYWGGQAPILFPICGSVRNDCVIYRPAQAPHFTGIIPRHGFVRHKTFDYDYISDSSVRFTIKSSKEMLINYPYRFSLEITYTLRNKSIAITYIVKNLESEKNMPYAIGAHPGFNCPLFEKEVFSDYYLEFEQFETCTIPESFPDTGLLDLQARHPFLENQKQLSLNHALFEKDAITLDQLRSKTVYLKSRNHAKGIQLDFDDFENLILWTSNNGGPFLALEPWSSLSTSIEESDILEDKQNIVRLNPKQSKQHSIRITIL
MGSDKIHHHHHHMAKAKTQFICSNCGYTSARYLGRCPNCGQWNTLIEEKIVPEAVVNRKARISFDGRVAKPKKISEISGNELPRTRTGLRELNRVLGGGIVPGSLILIGGDPGIGKSTLMLQVSGQLAENGGSVLYVSGEESDNQIKLRADRLGVGSDSFIVYPETDMEQIKSIVQQIEPDYLVIDSVQTMQEPDLQSPIGSVAQIREVTANLMQIAKTNAITVFIVGHVTKDGSIAGPKILEHMVDTVLYFEGDANYKYRILRTVKNRFGSTNELGIFEMRDHGLREVANPSEIFLEERLAGATGSAITASMEGSRPILVEVQALVAPTVFGNAQRVTTGVDRNRVSQILAVLEKHANLLLQNQDAHVRITGGVKIDEPAADLAIALAVASSYHEKATNASDVFLGEVGLGGEVRSISLIEDRLKEIAKLGFKRAIVSKNNLAGIDLPKGLQVIGVSTLEEALKLGLDLNRASKQKGFADL
MGSDKIHHHHHHMAKDIIKLGDVATYINGYAFKPEDRGEEGLQIIRIQDLTGNSYDLGFYNGKYPKKIEINDGDVLISWSASLGVYVWNGGKALLNQHIFKVKFDKVDIDKSYFVYAVRYKLNDMGKKTHGATMKHIVKRDFDATEIPYPPLKKQIEIAINLDKVLMVIKERKRELKLLDELIKARFVEMFGDCTNMISLSDLCLIITDGTHQSPKFQHEGIPFILVSNLSKNTVTYDTDKFISAETYKELYKRTPIEIGDILLSTVGSYGHPAVVVEDRKFLFQRHIAYLKPKSDILNSYYMHGALLSPGCQRQIEEKVKGIAQKTLNLSEIRKIRIPVPSLDLQKQYADFVHQVNKSKVAVQKALDETQILFDSLMQKYFG
MGSDKIHHHHHHMAKTNPGRFFEDYTVGQTLHHAVPRTVTNGERALYHALYPARHALYSSDAFAQSCGLPGSPIDDLAAFHVVFGKTVPDVSLNAVANLGYAEGRWLKPVYAGDTLRSVSEVIGLKQNSNGKTGVVYVRTRGLNQRDETVMEYVRWVMVRKRDLDAPAPEIVVPELKKALAPNDLVVPEGLDFTAYDFALAGEPHRWGDYAVGETIDHVDGVTVEEAEHMLATRLWQNTAKVHFDLTFRPDGRLIYGGHVISMARALSFNGLANAQIIVGLNGGAHANPCFAGDTIKAWTEVLDKAETAAPGVGALRLRLVATKGGAPFALHGEDGKYLPEVLLDLDYWVLMPK
MGSDKIHHHHHHMALFESYDRRIDHINAVLNEYGINGIEDAKAICDAKGIDPYTMCKETQPICFENACWAYVVGAAIAIKKGCTNAAEAAEAIGIGLQAFCIAGSVADDRKVGIGHGNLAARLLREETKCFAFLAGHESFAAAEGAIKIAEMANKVRKEPLRVILNGLGKDAAKIISRINGFTYVQTQFDYMTGEVNVIEEKAYSNGLRAKVKCYGADDVREGVAIMRKEGVDVSITGNSTNPTRFQHPVAGTYKKECMENGHPYFSVASGGGTGRTLHPDNMAAGPASYGMTDTMGRMHGDAQFAGSSSVPAHVEMMGFLGMGNNPMVGATVAVAVAIEEAMKK
MGSDKIHHHHHHMALIHEIITSENIKGFYNAKNENVENTLGEKAFPPKQQLGLKLSFIKGAAGKPVTLKAAAFDTKVPLRDRMAVELIDEEMPFFKEAMLVKEADRQQLNMLAQTKNNELIDTILASIYNDQATLIAGAKARLEAMRMEVLSKGKIHIQSNGVMKDIDYGLAEDQTTKPDAKWDSAGTATPLKDIEKAIEKMAERGFVPEAIIMNSKTFSLIKNAESTLDVVKPMAPNGAAVTKRDLNTYLEDELQIKVILKDGMFVGDDGESRKYFPDGFATLVPNGNLGYTVFGTTPEQSDLLGGEATDANVSIVETGIAITTTKTTDPVNVQTKVSMIALPSFERLEEVHIINGLQDA
MGSDKIHHHHHHMAMDRVTKQLTVSKLLSLANFIPKDSQKILFYSTPDVSDNALALFKYISEKTDDYELAWLLNNPNSPSVKTLKEKYPEVKTIYLYSLEGLKELLRSKFVVLTDVLPLTPHRGQKIIQLWHGLPGKKTGYEHPLNVKDLYLYMDKWTTDFVTTSELVVGAFVRQFMINPRKFRILGQPRNDGLFDNLKDAKNILSSILGRDVEDYDHLILYAPTYRYTSYMKDFQASVNVVKTLFHHKFLEFLKEENILLVIKPHKLVADVIKPEIKENSNVILLTDEHLQSRLITINDVMGAFDILITDYSSIFEDYILLERPILFYLPDREALERKSGFLLPYEFFAPGRKPETLEGLIHALKIYMEDPEVDSEWRKTVKNLLYEVGKDNKSSERIYNLIIKQK
MGSDKIHHHHHHMANNIQGFVMIGAQAIVFSITNLRTLKTIERGRYPVAIGDDFYAEHEILPDTVDAIVQAFDAINQIFKDYGVPTVNVFASTSWAEADNAEFVRDQLYTRTGWLIKTTSLSEEAFFRTQAIMVKFPQFKSITQKGTVLIDISSGSVELTTFSNGVFGFSRNLSLGPLRVYEIMSDVQRSVTNYVEVMRDYIDSRLLDFMRLLPQGVEYTNMILMGSNLSIFQNIIPEGKHQVETDRPGFDLLYDEVTKASDQYLADTYDLTSDQTSLVLPTVLLVYRLVETLNSQSIWISDLKAIDGIEVNAAHEGGFKKLGFDPNEEIVISANNLAERYQVDEAHMQATRTVALQLFDRLKKLHGMGKRERLLLEVAATVSDIGSYIETHKHYAHSNYIIKASEIMGLNDLEVTMVATITRFHSSITPQSDLKNFPTMSTENRLVVAKLSALLRVADSLDASRQQKIQQLRVSVKPNEVLLTARADDDIELERWTLARKGKFFSEVFGLGLELKGRNIL
MGSDKIHHHHHHMAQMTPSQEPQSAAEYDDRTTAAVKSVLIEIGQILGSFKGKFAIIGGAVPWLLLANEDMPHVGTLDVDVGLDAEALGDGEYATLVGALQGHGYAQREGLRRFQLVRQVPARDGGEAIDVVVDFLMPRDAEIVRNNPPLISDFAVQRADGADLAMRFYQLVAVAGSMPDGGTNRVEIAVCSIPALLAMKGHALAGRYKQKDAYDIYYCVRNYPAGIEALAQECRPLLGHASGERGFLHIADKFDAFDGYGPTCVRRFVEDTQALGDRTPDQWQQDAFGQIDALLRAMALRG
MGSDKIHHHHHHMASISIRCPSCSATEGVVRNGKSTAGHQRYLCSHCRKTWQLQFTYTASQPGTHQKIIDMAMNGVGCRASARIMGVGLYTVLRHLKNSAESVTSRIQPGSDVIVCAEMDEHWGYVGAKSRQRWLFYAYDRIRRTVVAHVFGERTLATLERLLSLLSAFEVVVWMTDGCPLYESRLKGKLHVISKRYTQRIERHNLNLRQHLARLVRKSLSFSKSVELHDKAIGHYLNIKHYQ
MGSDKIHHHHHHMASYSLVESNSFGSENWCLKLQPSYKHGLLTGLSNGEIRLLDWSTGKSVQKIKASETAINDMKVIGSDFSAGHLVSSASIDAVKVFDIRTNDRIAQIQNEANSPFISLDSRHGLLACGTELQGIDAAVYIYDIRKWDTPLRSLIDSHHDDVTCIKFHPSDVNILLSGSTDGYTNIYDLKQDEEEDALHQVINYASIHSCGWLSPKRIFTLSHMETFAIHELNDKSDELKEPQPLDFGDVREIWNCDYVVDIYPGLIATGKTQENCGELCLLPFKDEKVDTENGIVIPHAHGDEVVRDIFIPAQHSNMLYSCGEDGCVKIWENKQGPLDIPENFWDYSKKMNVLGDDDREGSINLDEPLIIQKESVSTRPRKEKHKKAKKHSMKSRFKPY
